Experimental data published in publication PMC3074145 (Nucleic Acids Research, 2010).
Like-named read-outs stand apart in the source and are kept apart here.

Key:
GST–Dpb11 = target: T1, GST–Dpb11 (S. cerevisiae, UniProt P47027 1-764); test: pull-down
T1 sequence (looked up): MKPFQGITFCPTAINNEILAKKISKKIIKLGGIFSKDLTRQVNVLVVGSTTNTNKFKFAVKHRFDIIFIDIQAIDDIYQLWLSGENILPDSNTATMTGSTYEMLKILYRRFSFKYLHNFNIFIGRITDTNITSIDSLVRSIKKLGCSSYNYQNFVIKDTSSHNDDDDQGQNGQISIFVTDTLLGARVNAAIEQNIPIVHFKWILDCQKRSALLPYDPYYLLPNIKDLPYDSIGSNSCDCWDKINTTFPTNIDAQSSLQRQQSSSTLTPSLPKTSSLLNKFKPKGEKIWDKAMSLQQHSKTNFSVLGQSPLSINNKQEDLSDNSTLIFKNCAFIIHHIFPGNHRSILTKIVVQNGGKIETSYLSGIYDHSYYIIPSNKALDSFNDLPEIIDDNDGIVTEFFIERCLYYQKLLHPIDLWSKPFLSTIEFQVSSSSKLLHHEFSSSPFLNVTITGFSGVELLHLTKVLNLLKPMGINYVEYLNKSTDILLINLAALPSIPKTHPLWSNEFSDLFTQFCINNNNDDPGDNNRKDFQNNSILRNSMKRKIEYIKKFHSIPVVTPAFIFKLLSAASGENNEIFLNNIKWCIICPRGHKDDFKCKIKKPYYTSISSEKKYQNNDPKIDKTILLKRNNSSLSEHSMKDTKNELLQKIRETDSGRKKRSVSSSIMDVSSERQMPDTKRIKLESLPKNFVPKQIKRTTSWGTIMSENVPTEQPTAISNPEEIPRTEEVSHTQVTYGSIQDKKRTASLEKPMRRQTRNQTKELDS

GST-Sld2T84D [1] = target: T2, GST-Sld2T84D (Saccharomyces cerevisiae, UniProt P34252 1-453, T84D); test: GST pull-down
T2 sequence: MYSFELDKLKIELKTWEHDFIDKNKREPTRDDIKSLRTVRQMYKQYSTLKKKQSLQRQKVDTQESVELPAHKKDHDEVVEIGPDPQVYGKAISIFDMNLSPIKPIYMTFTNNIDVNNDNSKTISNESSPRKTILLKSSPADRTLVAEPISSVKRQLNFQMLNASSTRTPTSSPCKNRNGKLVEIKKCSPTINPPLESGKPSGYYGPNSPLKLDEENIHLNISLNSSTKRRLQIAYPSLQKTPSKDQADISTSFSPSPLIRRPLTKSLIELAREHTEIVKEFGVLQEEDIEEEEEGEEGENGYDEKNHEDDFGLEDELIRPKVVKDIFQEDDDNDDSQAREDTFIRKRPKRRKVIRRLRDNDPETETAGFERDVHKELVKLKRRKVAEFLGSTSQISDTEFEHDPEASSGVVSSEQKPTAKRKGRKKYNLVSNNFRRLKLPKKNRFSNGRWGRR

Sld2 = target: T3, Sld2 (Saccharomyces cerevisiae, UniProt P34252 1-453); test: fluorescence anisotropy
T3 sequence: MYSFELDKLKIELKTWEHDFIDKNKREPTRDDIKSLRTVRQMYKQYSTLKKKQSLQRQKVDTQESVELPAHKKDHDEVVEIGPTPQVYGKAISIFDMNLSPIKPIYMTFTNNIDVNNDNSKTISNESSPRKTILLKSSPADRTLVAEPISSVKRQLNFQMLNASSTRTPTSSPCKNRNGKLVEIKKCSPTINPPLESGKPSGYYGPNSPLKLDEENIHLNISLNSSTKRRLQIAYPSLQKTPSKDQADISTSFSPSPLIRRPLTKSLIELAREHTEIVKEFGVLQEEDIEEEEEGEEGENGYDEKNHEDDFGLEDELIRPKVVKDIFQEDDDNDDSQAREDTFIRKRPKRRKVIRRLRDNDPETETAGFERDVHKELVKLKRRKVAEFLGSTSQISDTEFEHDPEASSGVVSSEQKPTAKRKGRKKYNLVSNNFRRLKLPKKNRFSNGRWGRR

Sld2T84D = target: T4, Sld2T84D (Saccharomyces cerevisiae, UniProt P34252 1-453, T84D); test: fluorescence anisotropy
T4 sequence: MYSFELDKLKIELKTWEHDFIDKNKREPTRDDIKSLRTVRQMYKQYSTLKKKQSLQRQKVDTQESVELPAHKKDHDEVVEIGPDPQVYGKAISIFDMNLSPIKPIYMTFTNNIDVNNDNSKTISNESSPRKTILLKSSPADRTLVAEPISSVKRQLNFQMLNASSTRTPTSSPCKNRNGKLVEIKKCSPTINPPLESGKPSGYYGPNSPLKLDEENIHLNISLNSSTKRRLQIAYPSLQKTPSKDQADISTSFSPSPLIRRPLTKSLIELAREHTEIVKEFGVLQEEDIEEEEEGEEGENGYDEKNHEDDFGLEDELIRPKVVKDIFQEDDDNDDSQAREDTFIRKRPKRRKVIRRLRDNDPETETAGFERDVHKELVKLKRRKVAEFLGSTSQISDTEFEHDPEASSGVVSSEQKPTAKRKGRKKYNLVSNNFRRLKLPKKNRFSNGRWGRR

Dpb11;Sld2T84D = target: T5, Dpb11;Sld2T84D (Saccharomyces cerevisiae;Saccharomyces …, UniProt P47027;P34252 1-764;1-453, |T84D); test: biotin-DNA pull-down
T5 sequence 1: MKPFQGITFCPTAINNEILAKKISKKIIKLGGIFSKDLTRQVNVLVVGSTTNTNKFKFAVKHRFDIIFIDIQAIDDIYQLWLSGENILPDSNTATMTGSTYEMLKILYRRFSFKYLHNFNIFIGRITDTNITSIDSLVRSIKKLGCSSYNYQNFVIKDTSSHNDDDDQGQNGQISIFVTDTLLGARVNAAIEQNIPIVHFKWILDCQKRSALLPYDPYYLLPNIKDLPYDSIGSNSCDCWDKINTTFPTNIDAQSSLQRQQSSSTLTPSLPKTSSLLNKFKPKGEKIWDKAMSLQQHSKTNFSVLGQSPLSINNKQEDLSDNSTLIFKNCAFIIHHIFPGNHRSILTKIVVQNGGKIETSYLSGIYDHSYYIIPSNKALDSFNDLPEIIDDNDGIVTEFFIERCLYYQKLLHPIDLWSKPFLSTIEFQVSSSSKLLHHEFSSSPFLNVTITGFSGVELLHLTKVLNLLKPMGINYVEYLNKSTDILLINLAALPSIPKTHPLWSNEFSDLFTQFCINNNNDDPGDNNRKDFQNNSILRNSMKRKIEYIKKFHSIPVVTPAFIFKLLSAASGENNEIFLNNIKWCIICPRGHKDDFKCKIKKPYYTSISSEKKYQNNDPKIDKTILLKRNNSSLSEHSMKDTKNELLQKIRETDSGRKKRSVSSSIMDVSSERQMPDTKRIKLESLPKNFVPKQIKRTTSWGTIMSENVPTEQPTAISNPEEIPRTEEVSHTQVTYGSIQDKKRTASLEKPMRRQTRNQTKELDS
T5 sequence 2: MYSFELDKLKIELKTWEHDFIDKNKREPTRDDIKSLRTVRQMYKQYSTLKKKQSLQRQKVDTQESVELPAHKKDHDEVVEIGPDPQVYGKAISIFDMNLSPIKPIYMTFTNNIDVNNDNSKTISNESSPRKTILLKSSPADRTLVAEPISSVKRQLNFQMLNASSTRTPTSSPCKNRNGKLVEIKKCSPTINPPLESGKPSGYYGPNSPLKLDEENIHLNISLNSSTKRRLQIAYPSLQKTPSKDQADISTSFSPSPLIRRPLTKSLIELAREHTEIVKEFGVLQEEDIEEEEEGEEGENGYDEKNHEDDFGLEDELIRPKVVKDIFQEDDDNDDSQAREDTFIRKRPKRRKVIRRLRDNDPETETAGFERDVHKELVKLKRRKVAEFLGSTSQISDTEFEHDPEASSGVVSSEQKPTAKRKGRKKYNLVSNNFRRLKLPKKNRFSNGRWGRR

GST-Sld2T84D [2] = target: T2, GST-Sld2T84D; test: GST pull-down; remark: listed apart in the source

B1: Sld2T84D (radiolabeled, with a PKA sequence at the N-terminus) (natural protein, S. cerevisiae, UniProt P34252 1-453, looked up)
chain: MYSFELDKLKIELKTWEHDFIDKNKREPTRDDIKSLRTVRQMYKQYSTLKKKQSLQRQKVDTQESVELPAHKKDHDEVVEIGPDPQVYGKAISIFDMNLSPIKPIYMTFTNNIDVNNDNSKTISNESSPRKTILLKSSPADRTLVAEPISSVKRQLNFQMLNASSTRTPTSSPCKNRNGKLVEIKKCSPTINPPLESGKPSGYYGPNSPLKLDEENIHLNISLNSSTKRRLQIAYPSLQKTPSKDQADISTSFSPSPLIRRPLTKSLIELAREHTEIVKEFGVLQEEDIEEEEEGEEGENGYDEKNHEDDFGLEDELIRPKVVKDIFQEDDDNDDSQAREDTFIRKRPKRRKVIRRLRDNDPETETAGFERDVHKELVKLKRRKVAEFLGSTSQISDTEFEHDPEASSGVVSSEQKPTAKRKGRKKYNLVSNNFRRLKLPKKNRFSNGRWGRR
modifications: 32P-phosphate on the N-terminal PKA sequence (radiolabeled with PKA and γ-32P-ATP)
percent of input pulled down (with ssARS1-1 at a ratio of 1.2 ssARS1-1/Sld2T84D) (GST–Dpb11): 35.2%

B2: ARS1-G-C (ssDNA)
DNA: TTACATCTTGTTATTTTACACATTTTATCTTTACATCTTTTATCCTTCCTTTTCAAAACCCCTCCACCCAACTCCACAAA
binding result (GST-Sld2T84D [1]): binds

B3: FAM-ssARS1-1 (ssDNA)
DNA: TTACATCTTGTTATTTTACAGATTTTATGTTTAGATCTTTTATGCTTGCTTTTCAAAAGGCCTGCAGGCAAGTGCACAAA
Kd (Sld2): 694 ± 50 nM | Kd (Sld2T84D): 179 ± 43 nM

B4: Biotin-ssARS1-1 (ssDNA)
DNA: TTACATCTTGTTATTTTACAGATTTTATGTTTAGATCTTTTATGCTTGCTTTTCAAAAGGCCTGCAGGCAAGTGCACAAA
binding result (Dpb11;Sld2T84D): binds

B5: ARS1-A-C (ssDNA)
DNA: TTCCCTCTTGTTCTTTTCCCGCTTTTCTGTTTCGCTCTTTTCTGCTTGCTTTTCCCCCGGCCTGCCGGCCCGTGCCCCCC
binding result (GST-Sld2T84D [1]): binds

B6: ARS1-T-A (ssDNA)
DNA: AAACAACAAGAAAAAAAACAGAAAAAAAGAAAAGAACAAAAAAGCAAGCAAAACAAAAGGCCAGCAGGCAAGAGCACAAA
binding result (GST-Sld2T84D [2]): no binding
